Earlier results in publication PMC6995525, “Structure of the PUB Domain from Ubiquitin Regulatory X Domain Protein 1 (UBXD1) and Its Interaction with the p97 AAA+ ATPase” (Biomolecules, 2019).

Molecular target: p97 last 10 residues (Homo sapiens) (UniProt P55072)
Sequence (P55072 whole entry, looked up): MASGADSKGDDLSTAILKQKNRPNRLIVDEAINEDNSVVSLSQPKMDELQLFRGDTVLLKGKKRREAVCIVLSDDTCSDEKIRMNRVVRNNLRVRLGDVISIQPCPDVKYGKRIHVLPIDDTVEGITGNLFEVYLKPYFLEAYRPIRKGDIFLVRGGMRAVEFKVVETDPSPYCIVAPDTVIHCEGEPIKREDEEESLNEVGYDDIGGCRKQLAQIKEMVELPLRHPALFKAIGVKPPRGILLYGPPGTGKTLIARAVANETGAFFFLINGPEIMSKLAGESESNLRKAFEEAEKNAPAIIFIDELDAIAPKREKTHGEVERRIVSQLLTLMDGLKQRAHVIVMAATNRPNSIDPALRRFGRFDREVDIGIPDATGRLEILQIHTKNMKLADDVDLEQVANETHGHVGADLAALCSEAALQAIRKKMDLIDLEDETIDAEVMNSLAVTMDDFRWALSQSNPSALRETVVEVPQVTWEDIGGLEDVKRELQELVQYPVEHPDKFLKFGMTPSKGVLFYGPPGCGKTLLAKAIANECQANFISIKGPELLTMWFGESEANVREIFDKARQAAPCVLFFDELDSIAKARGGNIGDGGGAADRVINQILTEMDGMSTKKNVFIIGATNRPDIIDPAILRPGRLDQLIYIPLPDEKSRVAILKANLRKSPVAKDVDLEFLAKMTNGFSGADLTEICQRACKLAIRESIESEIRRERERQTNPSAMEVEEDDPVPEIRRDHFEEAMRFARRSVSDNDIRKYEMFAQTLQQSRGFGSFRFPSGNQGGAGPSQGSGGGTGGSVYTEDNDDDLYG

Chain of UBXD1 PUB (Q9BZV1 172-247): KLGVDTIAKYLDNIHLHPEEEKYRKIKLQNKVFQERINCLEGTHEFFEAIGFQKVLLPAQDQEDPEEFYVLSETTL

Kd: 12 µM
Substance: UBXD1 PUB (from UniProt Q9BZV1)
